Assay results published in US12427188B2, “Pyocyanine demethylases and related phenazine degrading agents compositions, methods and systems for interfering with viability of bacteria” (priority 2020, dated 2025).

What was measured:
[1] = Continuous spectrophotometric PYO demethylation assay (specific activity and kinetics of PodA); assay type: biochemical
Experimental: Specific activity and kinetics of PodA. To determine specific activity and kinetic parameters of PodA for PYO, a continuous spectrophotometric assay monitoring the absorbance of PYO (690 nm) was utilized. Briefly, assays were performed at 25° C. in 100 μL reaction volumes in 96-well plates and reactions were monitored at 690 nm over 10 min. Reaction mixtures contained Phosphate buffer (50 mM, pH 6.0), ethylene glycol (1%, v/v), protein (3 μM) and substrate (for specific activity, 100 μM, for kinetics, varying). Data were acquired using the SpectraMax® M3 Microplate Reader (Molecular Devices) using the Soft Max Pro software every 10 s over 10 min. Path lengths for each well were calculated using Soft Max Pro endpoint readings and slopes were corrected for path lengths of 1 cm.
Specific activity was calculated from the slope of the linear range of (ΔOD690 min^−1) using Beer's Law (A=εcl) with a path length of 1 cm and the molar extinction coefficient of PYO (4,130 M^−1 cm^−1). Equation was solved for c, giving specific activity in nmol min^−1 mg^−1 of PodA. For kinetic parameters, graphs of initial velocity (μM s^−1) versus substrate concentration (μM) were plotted using Prism v8 (GraphPad). The Michaelis-Menten kinetics model was used to determine Km and Vmax. The turnover number (kcat) was determined using the following equation: Vmax=kcat[E], where [E] was the concentration of PodA added. All spectrophotometric assays mentioned above were completed thrice, each in technical triplicate with a representative data set shown. Error bars represent standard deviation as calculated by Prism v8 (GraphPad). Standard deviation for kcat and Kcat KM^−1 was calculated using standard formulas for propagation of error.

[2] = Protein yield of PodA variants purified from inclusion bodies of overexpression culture
Experimental: Protein overproduction and purification of soluble and inclusion body fractions. Plasmids coding for proteins of interest were transformed into E. coli BL21 […]. […]. Cultures were grown at 37° C. with shaking to an optical density of 0.4 (OD600 nm) and plasmid expression was induced with IPTG (50 μM) and shaken overnight at 16° C. Cells were harvested by centrifugation at 5,000×g for 10 min in a Beckman Coulter Avanti J-20 XOI refrigerated centrifuge using a JLA-8.1000 rotor at 4° C. Cell pellets were stored at −80° C. until used.
For purification of PodA from inclusion bodies, the pellets remaining following lysis and centrifugation at 40,000×g were resuspended in 20 mL of detergent buffer [50 mM HEPES (pH 7.5) and 1% Triton-X (v/v)] using a Bio-gen PRO200 cell homogenizer (PRO Scientific). Sample was spun for 15 min at 40,000×g at 4° C. in a Beckman Coulter Avanti centrifuge with a JA-25.50 rotor. Supernatant was discarded and the remaining cell pellet was resuspended in 5 mL of buffer [50 mM HEPES (pH 7.5), 500 mM NaCl] using a cell homogenizer, supplemented with lysozyme (200 μg mL^−1), and incubated for 10 min. Volume was increased to 20 mL with HEPES (50 mM, pH 7) and sample was spun for 40,000×g at 4° C. for 15 min. Supernatant was discarded and pellet was homogenized in 10 mL of denaturing buffer 50 mM HEPES (pH 7.5), 500 mM NaCl, and 8M urea) and incubating rocking overnight. The sample was spun at for 40,000×g at 25° C. for 30 min and supernatant was incubated with 1 mL HisPur Ni-NTA resin (Thermo Fisher Scientific) on a rocking platform for 10 min. Beads were allowed to settle without shaking, supernatant was discarded, and resin was pipetted into glass gravity columns. Resin was washed with 15 mL of denaturing buffer, followed by an elution with denaturing buffer supplemented with imidazole (500 mM). Fractions were analyzed by SDS-PAGE and those containing protein were combined into SnakeSkin 3.5 K MWCO dialysis tubing (Thermo Fisher Scientific). Urea was slowly dialyzed out in HEPES (50 mM, pH 7.5) and NaCl (500 mM) by lowing urea concentrations by 1 M increments. Each step was dialyzed at RT for 30 min. Protein was dialyzed in HEPES (50 mM, pH 7.5), NaCl (500 mM), and imidazole (20 mM) overnight at 4° C. The following day, protein was cleaved for 3 h at 25° C. with TEV protease (1:50 mg:mg ratio of TEV to PodA). The sample was applied to a HisPur gravity column and cleaved protein in the flow thru was confirmed by SDS-PAGE. Cleaved PodA protein was then dialyzed for storage for 3 h at 4° C. in HEPES (50 mM pH 7.5), NaCl (250 mM) and finally in HEPES (50 mM, pH 7.5), NaCl (100 mM), and glycerol (20%, v/v). Protein concentration was established on a NanoDrop™ using the extinction coefficient and MW of each protein. Protein was drop frozen in LN2 and stored at −80° C. until use.

Pseudomonas aeruginosa = test: Crystal violet biofilm assay; assay type: cell-based; conditions: 24 h incubation, protein added from the beginning
Experimental: Crystal violet assay. Pseudomonas aeruginosa grown overnight in LB were inoculated (1.5%, v/v) and grown for 24 h at 37° C. in 96-well round bottom plates in minimal medium (100 μL) with arginine (40 mM) as the sole carbon source. PodA was added with cells simultaneously and was present during growth and biofilm development. Planktonic cells were removed and attached cells were quantified with crystal violet staining (125 μL. 0.1% w/v), followed by washes with water and de-staining with an acetic acid (30%, v/v) mixture in water. Crystal violet was measured using a SpectraMax® M3 Microplate Reader (Molecular Devices) at an absorbance of 550 nm. Details of procedure were published previously (28)[43].

[3] = system: Pseudomonas aeruginosa aggregate biofilms; conditions: previous experiments, succinate-minimal medium, 27 hours; cited from earlier work
[4] = pH 6, 1% ethylene glycol, PodA 3 μM, substrate PYO

B1: WT PodA41-162: Truncated wild-type pyocyanin demethylase from Mycobacterium fortuitum (MFORT_14352) lacking N-terminal membrane helix, SEQ ID NO: 3 (protein)
chain: VTMTLDVKNDQVAKHDFGKPGMDVGDMDIFSDILSVDGKQVGYDGGACFFTNVTPDNPMTYCELTIHLDAGEIFARSLTPHTLAPFTMAITGGTGEYANSKGELTVSGVATPDEKYELKLTK
Q: Which results are given for B1?
A: pH of optimal activity ([1]; buffers pH 5.5-10.0, PodA 3 μM, PYO 100 μM): 6; Effect of salts (NaCl and KCl) on activity ([1]; cystic fibrosis sputum range, 66 mM Na+, 15 mM K+): did not inhibit or enhance; Km [1, 4]: 372 µM; catalytic efficiency [1, 4]: 4.74±0.24×10^2 M^−1 s^−1; kcat [1, 4]: 0.176 ± 0.003 s⁻¹; Effect of slight increase in viscosity (ethylene glycol or glycerol 1% v/v) on activity ([1]; pH 6, PodA 3 μM, PYO 100 μM): enhanced; catalytic efficiency ([1]; protein from soluble fraction): 1.05±0.093×10^2 M^−1 s^−1; catalytic efficiency ([1]; protein purified from inclusion bodies, denatured and refolded): 1.14±0.25×10^2 M^−1 s^−1; protein yields ([2]; per L of bacterial culture, typical): ~0.3 mg/L; Yield ([2]; purified from inclusion bodies, per L of E. coli overexpression culture): 0.33 mg/L^−1; biofilm attachment (crystal violet) (Pseudomonas aeruginosa): biofilm attachment defect; aggregate development in ABBA [3]: smaller aggregates in anoxic regions of the agar
